Assay results as given in patent US20140057284A1, “PHOTOLUMINESCENT MOLECULAR COMPLEX AND METHOD FOR DETERMINING OF THE CONCENTRATION OF SAID MOLECULAR COMPLEX” (priority 2011, published 2014).
pKd: −log10 of the molar value.

Experiments:
[1] = tested on: CK2; test: PK selectivity profiling, residual kinase activity; type: biochemical; details: 1 μM ARC-669, ATP close to Km
[2] = target: T1, SmMLCK (Homo sapiens, UniProt Q15746); test: PK selectivity profiling, residual kinase activity; type: biochemical; details: 1 μM ARC-669, ATP close to Km, read-out: Percentages of residual activities of the kinase reaction
T1 construct: Division of Signal Transduction Therapy, University of Dundee (contract testing)

[3] = tested on: CK1; test: PK selectivity profiling, residual kinase activity; type: biochemical; details: 1 μM ARC-669, ATP close to Km
[4] = target: JNK2 (Homo sapiens, UniProt P45984); test: biochemical; details: read-out: Percentages of residual activities of the kinase reaction
Description: (§1) Selectivity testing (Table 2) was performed on the commercial basis at the Division of Signal Transduction Therapy, University of Dundee. ATP concentrations that were used in testing were close to the Km value of the kinase.

[5] = target: HIPK3 (Homo sapiens, UniProt Q9H422); test: biochemical; details: read-out: Percentages of residual activities of the kinase reaction
Description: as §1

[6] = target: FGF-R1 (Homo sapiens, UniProt P11362); test: biochemical; details: read-out: Percentages of residual activities of the kinase reaction
Description: as §1

[7] = target: CHK1 (Homo sapiens, UniProt O14757); test: biochemical; details: read-out: Percentages of residual activities of the kinase reaction
Chain of CHK1 (O14757 whole entry, species assumed): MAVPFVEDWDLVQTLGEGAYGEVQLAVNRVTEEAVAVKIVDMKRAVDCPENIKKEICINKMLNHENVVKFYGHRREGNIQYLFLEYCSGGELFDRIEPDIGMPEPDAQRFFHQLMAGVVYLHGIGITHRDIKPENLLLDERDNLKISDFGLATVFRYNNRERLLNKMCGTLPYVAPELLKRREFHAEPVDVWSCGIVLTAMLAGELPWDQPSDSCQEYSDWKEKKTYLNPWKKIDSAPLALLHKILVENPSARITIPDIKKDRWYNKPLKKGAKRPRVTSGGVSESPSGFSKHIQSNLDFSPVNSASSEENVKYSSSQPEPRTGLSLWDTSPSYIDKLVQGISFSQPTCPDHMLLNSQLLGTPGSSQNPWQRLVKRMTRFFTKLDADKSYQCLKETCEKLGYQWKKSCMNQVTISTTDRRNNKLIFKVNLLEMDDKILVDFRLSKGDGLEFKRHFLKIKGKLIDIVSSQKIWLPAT
Description: as §1

[8] = target: CDK2-Cyclin A (Homo sapiens, UniProt P24941); test: biochemical; details: read-out: Percentages of residual activities of the kinase reaction
Description: as §1

[9] = target: MKK1 (Homo sapiens, UniProt Q02750); test: biochemical; details: read-out: Percentages of residual activities of the kinase reaction
Chain of MKK1 (Q02750 whole entry, species assumed): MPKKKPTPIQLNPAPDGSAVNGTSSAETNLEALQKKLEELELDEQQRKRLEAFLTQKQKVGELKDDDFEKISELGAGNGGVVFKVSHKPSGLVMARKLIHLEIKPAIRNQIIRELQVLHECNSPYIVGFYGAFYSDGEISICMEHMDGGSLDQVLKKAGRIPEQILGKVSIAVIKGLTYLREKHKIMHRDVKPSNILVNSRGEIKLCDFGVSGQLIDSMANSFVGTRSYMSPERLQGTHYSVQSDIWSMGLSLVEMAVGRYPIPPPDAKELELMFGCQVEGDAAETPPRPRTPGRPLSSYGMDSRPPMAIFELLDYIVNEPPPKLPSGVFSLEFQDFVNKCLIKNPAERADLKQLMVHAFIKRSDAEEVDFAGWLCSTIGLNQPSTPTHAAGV
Description: as §1

[10] = target: RSK2 (Homo sapiens, UniProt P51812); test: biochemical; details: read-out: Percentages of residual activities of the kinase reaction
Description: as §1

[11] = target: CLK2 (Homo sapiens, UniProt P49760); test: biochemical; details: read-out: Percentages of residual activities of the kinase reaction
Description: as §1

[12] = target: EPH-B4 (Homo sapiens, UniProt P54760); test: biochemical; details: read-out: Percentages of residual activities of the kinase reaction
Description: as §1

[13] = target: PLK1 (Homo sapiens, UniProt P53350); test: biochemical; details: read-out: Percentages of residual activities of the kinase reaction
Chain of PLK1 (P53350 whole entry, species assumed): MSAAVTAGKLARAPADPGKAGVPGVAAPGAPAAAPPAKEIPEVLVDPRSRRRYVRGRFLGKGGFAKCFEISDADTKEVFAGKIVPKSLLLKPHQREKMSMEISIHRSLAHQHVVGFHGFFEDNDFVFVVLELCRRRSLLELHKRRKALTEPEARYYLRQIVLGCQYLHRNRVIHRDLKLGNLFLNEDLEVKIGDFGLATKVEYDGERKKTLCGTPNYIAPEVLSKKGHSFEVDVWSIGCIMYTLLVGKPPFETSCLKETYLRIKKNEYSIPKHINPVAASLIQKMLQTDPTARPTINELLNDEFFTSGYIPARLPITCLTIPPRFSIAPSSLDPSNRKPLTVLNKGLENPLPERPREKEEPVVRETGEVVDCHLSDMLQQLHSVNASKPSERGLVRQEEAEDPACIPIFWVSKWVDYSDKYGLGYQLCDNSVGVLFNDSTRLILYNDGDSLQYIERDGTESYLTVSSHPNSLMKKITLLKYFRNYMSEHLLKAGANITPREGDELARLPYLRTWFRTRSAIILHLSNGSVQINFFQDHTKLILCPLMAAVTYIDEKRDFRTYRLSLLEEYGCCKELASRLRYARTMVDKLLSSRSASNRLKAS
Description: as §1

[14] = target: MNK1 (Homo sapiens, UniProt Q9BUB5); test: biochemical; details: read-out: Percentages of residual activities of the kinase reaction
Description: as §1

[15] = target: MPSK1 (Homo sapiens, UniProt O75716); test: biochemical; details: read-out: Percentages of residual activities of the kinase reaction
Description: as §1

[16] = target: MINK1 (Homo sapiens, UniProt Q8N4C8); test: biochemical; details: read-out: Percentages of residual activities of the kinase reaction
Description: as §1

[17] = target: MEKK1 (Homo sapiens, UniProt Q13233); test: biochemical; details: read-out: Percentages of residual activities of the kinase reaction
Description: as §1

[18] = target: PRAK (Homo sapiens, UniProt Q8IW41); test: biochemical; details: read-out: Percentages of residual activities of the kinase reaction
Description: as §1

[19] = target: TAO1 (Homo sapiens, UniProt Q7L7X3); test: biochemical; details: read-out: Percentages of residual activities of the kinase reaction
Description: as §1

[20] = target: GCK (Homo sapiens, UniProt Q12851); test: biochemical; details: read-out: Percentages of residual activities of the kinase reaction
Description: as §1

[21] = target: PIM1 (Homo sapiens, UniProt P11309); test: biochemical; details: read-out: Percentages of residual activities of the kinase reaction
Description: as §1

[22] = target: NEK6 (Homo sapiens, UniProt Q9HC98); test: biochemical; details: read-out: Percentages of residual activities of the kinase reaction
Chain of NEK6 (Q9HC98 whole entry, species assumed): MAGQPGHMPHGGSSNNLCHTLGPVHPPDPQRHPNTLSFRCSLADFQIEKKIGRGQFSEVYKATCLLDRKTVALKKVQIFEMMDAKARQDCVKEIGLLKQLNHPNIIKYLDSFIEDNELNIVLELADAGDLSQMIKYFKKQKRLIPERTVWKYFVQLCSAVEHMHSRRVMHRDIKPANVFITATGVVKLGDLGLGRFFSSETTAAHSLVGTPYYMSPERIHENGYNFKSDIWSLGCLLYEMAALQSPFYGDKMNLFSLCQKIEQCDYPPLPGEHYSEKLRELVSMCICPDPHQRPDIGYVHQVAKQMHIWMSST
Description: as §1

[23] = target: YES1 (Homo sapiens, UniProt P07947); test: biochemical; details: read-out: Percentages of residual activities of the kinase reaction
Chain of YES1 (P07947 whole entry, species assumed): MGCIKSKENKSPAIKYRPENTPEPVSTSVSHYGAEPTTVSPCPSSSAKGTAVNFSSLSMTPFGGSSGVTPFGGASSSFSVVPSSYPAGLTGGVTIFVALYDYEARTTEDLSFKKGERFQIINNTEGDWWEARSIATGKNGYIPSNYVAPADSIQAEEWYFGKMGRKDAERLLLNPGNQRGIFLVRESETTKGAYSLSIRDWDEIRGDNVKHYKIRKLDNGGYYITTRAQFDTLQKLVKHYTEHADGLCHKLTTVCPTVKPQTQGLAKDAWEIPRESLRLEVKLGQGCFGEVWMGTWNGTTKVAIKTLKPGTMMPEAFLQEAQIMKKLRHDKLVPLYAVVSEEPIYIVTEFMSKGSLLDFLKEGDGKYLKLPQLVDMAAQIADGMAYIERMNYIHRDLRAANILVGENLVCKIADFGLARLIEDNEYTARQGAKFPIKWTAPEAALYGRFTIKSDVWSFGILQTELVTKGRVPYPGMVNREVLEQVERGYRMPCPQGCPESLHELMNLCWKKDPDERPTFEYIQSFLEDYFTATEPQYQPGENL
Description: as §1

[24] = target: ASK1 (Homo sapiens, UniProt Q99683); test: biochemical; details: read-out: Percentages of residual activities of the kinase reaction
Chain of ASK1 (Q99683 whole entry, species assumed): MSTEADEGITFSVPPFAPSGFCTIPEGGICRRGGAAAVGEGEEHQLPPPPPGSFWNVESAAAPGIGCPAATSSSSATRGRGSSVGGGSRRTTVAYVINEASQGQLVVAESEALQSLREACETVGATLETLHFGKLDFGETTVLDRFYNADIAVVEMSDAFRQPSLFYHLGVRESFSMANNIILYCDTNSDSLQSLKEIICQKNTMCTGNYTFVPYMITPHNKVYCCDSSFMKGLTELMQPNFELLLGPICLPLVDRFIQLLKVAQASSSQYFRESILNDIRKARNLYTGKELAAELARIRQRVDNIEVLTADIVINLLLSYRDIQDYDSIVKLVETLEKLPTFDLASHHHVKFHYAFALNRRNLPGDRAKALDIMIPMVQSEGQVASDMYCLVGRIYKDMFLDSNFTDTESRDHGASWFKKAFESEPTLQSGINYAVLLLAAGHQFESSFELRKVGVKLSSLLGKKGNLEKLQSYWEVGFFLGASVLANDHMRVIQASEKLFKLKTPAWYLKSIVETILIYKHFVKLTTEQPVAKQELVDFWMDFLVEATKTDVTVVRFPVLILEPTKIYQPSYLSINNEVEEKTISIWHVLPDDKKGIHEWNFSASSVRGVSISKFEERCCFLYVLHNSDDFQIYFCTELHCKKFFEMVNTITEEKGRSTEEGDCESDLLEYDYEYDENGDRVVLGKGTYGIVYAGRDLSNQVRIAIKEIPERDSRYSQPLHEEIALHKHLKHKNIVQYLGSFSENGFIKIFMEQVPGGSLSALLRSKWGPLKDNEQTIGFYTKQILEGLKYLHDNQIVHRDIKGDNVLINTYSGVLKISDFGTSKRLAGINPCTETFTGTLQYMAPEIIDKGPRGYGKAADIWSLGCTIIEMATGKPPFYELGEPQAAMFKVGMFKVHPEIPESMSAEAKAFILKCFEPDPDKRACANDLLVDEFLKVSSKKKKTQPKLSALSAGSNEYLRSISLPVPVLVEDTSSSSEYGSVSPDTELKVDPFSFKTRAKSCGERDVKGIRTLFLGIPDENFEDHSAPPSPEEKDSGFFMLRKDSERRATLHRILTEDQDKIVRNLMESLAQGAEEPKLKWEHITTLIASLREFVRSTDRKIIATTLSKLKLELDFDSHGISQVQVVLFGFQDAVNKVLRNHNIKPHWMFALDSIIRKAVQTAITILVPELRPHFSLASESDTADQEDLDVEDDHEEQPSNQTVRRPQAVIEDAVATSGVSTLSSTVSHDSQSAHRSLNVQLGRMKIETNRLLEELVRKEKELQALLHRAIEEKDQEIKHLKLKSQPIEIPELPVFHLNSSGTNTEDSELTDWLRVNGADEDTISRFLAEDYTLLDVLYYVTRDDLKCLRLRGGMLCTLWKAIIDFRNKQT
Description: as §1

[25] = target: EF2K (Homo sapiens, UniProt O00418); test: biochemical; details: read-out: Percentages of residual activities of the kinase reaction
Description: as §1

[26] = target: IKKb (Homo sapiens, UniProt O14920); test: biochemical; details: read-out: Percentages of residual activities of the kinase reaction
Description: as §1

[27] = target: MKK6 (Homo sapiens, UniProt P52564); test: biochemical; details: read-out: Percentages of residual activities of the kinase reaction
Description: as §1

[28] = target: MLK1 (Homo sapiens, UniProt P80192); test: biochemical; details: read-out: Percentages of residual activities of the kinase reaction
Chain of MLK1 (P80192 whole entry, species assumed): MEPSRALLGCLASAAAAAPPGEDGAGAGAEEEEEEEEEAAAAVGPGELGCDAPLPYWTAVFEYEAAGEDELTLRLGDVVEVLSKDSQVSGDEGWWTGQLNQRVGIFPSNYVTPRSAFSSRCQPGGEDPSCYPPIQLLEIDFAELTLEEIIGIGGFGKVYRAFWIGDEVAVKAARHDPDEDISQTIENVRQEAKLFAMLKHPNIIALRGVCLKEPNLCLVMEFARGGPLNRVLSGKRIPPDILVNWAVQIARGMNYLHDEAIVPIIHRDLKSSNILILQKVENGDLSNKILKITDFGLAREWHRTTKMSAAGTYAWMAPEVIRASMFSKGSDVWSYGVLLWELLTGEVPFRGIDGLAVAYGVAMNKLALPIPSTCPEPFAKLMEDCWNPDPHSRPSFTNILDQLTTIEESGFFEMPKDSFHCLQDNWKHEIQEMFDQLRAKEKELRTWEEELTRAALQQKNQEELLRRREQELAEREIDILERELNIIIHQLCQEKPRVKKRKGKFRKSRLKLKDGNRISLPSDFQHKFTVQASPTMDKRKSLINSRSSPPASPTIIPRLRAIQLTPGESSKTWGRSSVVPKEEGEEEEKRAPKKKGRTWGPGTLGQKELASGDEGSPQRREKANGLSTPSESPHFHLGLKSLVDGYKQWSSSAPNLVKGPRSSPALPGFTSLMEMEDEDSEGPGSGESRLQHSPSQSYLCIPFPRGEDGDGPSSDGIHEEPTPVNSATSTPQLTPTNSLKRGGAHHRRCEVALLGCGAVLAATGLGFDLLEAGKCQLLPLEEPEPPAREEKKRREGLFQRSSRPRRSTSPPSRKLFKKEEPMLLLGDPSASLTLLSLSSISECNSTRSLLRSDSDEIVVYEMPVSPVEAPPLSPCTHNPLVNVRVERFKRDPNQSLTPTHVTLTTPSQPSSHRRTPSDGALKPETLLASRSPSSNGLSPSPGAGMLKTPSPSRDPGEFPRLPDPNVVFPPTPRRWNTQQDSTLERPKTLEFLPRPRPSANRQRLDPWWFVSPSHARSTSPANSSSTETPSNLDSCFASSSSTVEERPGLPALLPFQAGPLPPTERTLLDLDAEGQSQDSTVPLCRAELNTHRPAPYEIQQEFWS
Description: as §1

[29] = target: EPH-A2 (Homo sapiens, UniProt P29317); test: biochemical; details: read-out: Percentages of residual activities of the kinase reaction
Description: as §1

[30] = target: NEK2a (Homo sapiens, UniProt P51955); test: biochemical; details: read-out: Percentages of residual activities of the kinase reaction
Description: as §1

[31] = target: BTK (Homo sapiens, UniProt Q06187); test: biochemical; details: read-out: Percentages of residual activities of the kinase reaction
Description: as §1

[32] = target: PDK1 (Homo sapiens, UniProt O15530); test: biochemical; details: read-out: Percentages of residual activities of the kinase reaction
Description: as §1

[33] = target: PAK5 (Homo sapiens, UniProt Q9P286); test: biochemical; details: read-out: Percentages of residual activities of the kinase reaction
Description: as §1

[34] = tested on: PHK; test: PK selectivity profiling, residual kinase activity; type: biochemical; details: 1 μM ARC-669, ATP close to Km
[35] = tested on: AMPK; test: PK selectivity profiling, residual kinase activity; type: biochemical; details: 1 μM ARC-669, ATP close to Km
[36] = target: catalytic subunit of cAMP-dependent protein kinase (PKAc) (Homo sapiens, UniProt P17612); test: Binding affinity to PKAc; details: towards PKAc

**Q.** For CN(C)c1ccc2c(c1)Oc1cc(N(C)C)ccc1C21OC(=O)c2cc(C(=O)NCCCC[C@@H](NC(=O)[C@@H](CCCNC(=N)N)NC(=O)[C@@H](CCCNC(=N)N)NC(=O)[C@@H](CCCNC(=N)N)NC(=O)[C@@H](CCCNC(=N)N)NC(=O)[C@@H](CCCNC(=N)N)NC(=O)[C@@H](CCCNC(=N)N)NC(=O)CCCCCNC(=O)[C@@H](CCCNC(=N)N)NC(=O)CCCCCNC(=O)c3ccc(-c4ccnc(N)n4)s3)C(N)=O)ccc21 [ARC-669], which “Percentages of residual activities of the kinase reaction” value [1] is on record?
**A.** 7%

**Q.** And the remaining activity at 1 µM [2]?
**A.** 46%

**Q.** What about the “Percentages of residual activities of the kinase reaction” value [3] of the same compound?
**A.** 72%

**Q.** And the remaining activity at 1 µM [4]?
**A.** 85%

**Q.** And the remaining activity at 1 µM [5]?
**A.** 97%

**Q.** And the remaining activity at 1 µM [6]?
**A.** 54%

**Q.** And the remaining activity at 1 µM [7]?
**A.** 29%

**Q.** What about the remaining activity at 1 µM [8] of the same compound?
**A.** 78%

**Q.** What about the remaining activity at 1 µM [9] of the same compound?
**A.** 69%

**Q.** And the remaining activity at 1 µM [10]?
**A.** 4%

**Q.** What about the remaining activity at 1 µM [11] of the same compound?
**A.** 1%

**Q.** What about the remaining activity at 1 µM [12] of the same compound?
**A.** 98%

**Q.** And the remaining activity at 1 µM [13]?
**A.** 101%

**Q.** What about the remaining activity at 1 µM [14] of the same compound?
**A.** 74%

**Q.** What about the remaining activity at 1 µM [15] of the same compound?
**A.** 97%

**Q.** What about the remaining activity at 1 µM [16] of the same compound?
**A.** 51%

**Q.** And the remaining activity at 1 µM [17]?
**A.** 19%

**Q.** What about the remaining activity at 1 µM [18] of the same compound?
**A.** 63%

**Q.** What about the remaining activity at 1 µM [19] of the same compound?
**A.** 94%

**Q.** What about the remaining activity at 1 µM [20] of the same compound?
**A.** 10%

**Q.** What about the remaining activity at 1 µM [21] of the same compound?
**A.** 3%

**Q.** What about the remaining activity at 1 µM [22] of the same compound?
**A.** 71%

**Q.** And the remaining activity at 1 µM [23]?
**A.** 64%

**Q.** What about the remaining activity at 1 µM [24] of the same compound?
**A.** 74%

**Q.** What about the remaining activity at 1 µM [25] of the same compound?
**A.** 43%

**Q.** What about the remaining activity at 1 µM [26] of the same compound?
**A.** 50%

**Q.** And the remaining activity at 1 µM [27]?
**A.** 107%

**Q.** And the remaining activity at 1 µM [28]?
**A.** 60%

**Q.** And the remaining activity at 1 µM [29]?
**A.** 98%

**Q.** And the remaining activity at 1 µM [30]?
**A.** 55%

**Q.** And the remaining activity at 1 µM [31]?
**A.** 36%

**Q.** What about the remaining activity at 1 µM [32] of the same compound?
**A.** 88%

**Q.** What about the remaining activity at 1 µM [33] of the same compound?
**A.** 18%

**Q.** And the “Percentages of residual activities of the kinase reaction” value [34]?
**A.** 32%

**Q.** What about the “Percentages of residual activities of the kinase reaction” value [35] of the same compound?
**A.** 36%

**Q.** And the pKd [36]?
**A.** 10.00
